Measured values taken from the supplement of paper PMC9170038.

System: MS2 coat protein
Assay: apparent KD of MS2 coat protein; designed switch direction (-1 OFF switch, 1 ON switch): -1; higher = weaker reporter binding
Method in brief: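 Designed RNA switches sharing common flanks were transcribed on Illumina chips by stalled E. coli RNA polymerase. They were titrated with SNAP-549-labelled MS2 coat protein, from 0.7 or 1.5 nM doubling to 3 µM, in Tris-HCl pH 7.5 buffer with KCl, MgCl2, BSA, DTT, tRNA and Tween-20. Titrations ran without input, with 200 uM small-molecule ligand, or with an oligonucleotide input. The apparent KD of each design is the median over its clusters, after curve-fitting of normalised cluster fluorescence.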

[1] = Eterna round: R95, input ligand: microRNA oligo, concentration not stated
[2] = input ligand: microRNA oligo, concentration not stated
[3] = Eterna round: R95, input ligand: FMN 200 uM
[4] = Eterna round: R95, input ligand: none

For “CCGUAACAUGAGGAUCACCCAUGUUAGGAUAUGUAGCGCUGGGCAUCCUCAGCUGGUUAUAGAAGGGACGAGGG [Eternabot (L2) Solution 15] (Eterna round: R97, puzzle: Exclusion 1)”, the “apparent KD of MS2 coat protein” value (input ligand: FMN 200 uM) was 73.7 nM and the “apparent KD of MS2 coat protein” value (input ligand: none) was 111 nM.
For “CCGUCAUCAGGAUAUCCACAUCUCUACAUGAGGAUCACCCAUGUAAGCUUGGGUAAUAGCGGAGAAGGGAUAGACU [Eternabot (Original) Solution 20] (Eterna round: R97, puzzle: Exclusion 5)”, the “apparent KD of MS2 coat protein” value (input ligand: FMN 200 uM) was 78.2 nM and the “apparent KD of MS2 coat protein” value (input ligand: none) was 57.5 nM.
In the case of “CCGUGCACGCUGCGGUCCUACAUGAGGAUCACCCAUGUGGUCCGGUGGCGUGGGUCGCCGGACUUGGCUCGUCUUGU [salish99_S_TOV1_R5_017] (Eterna round: R97, puzzle: Sensor, turn-off variant 1)”, the “apparent KD of MS2 coat protein” value (input ligand: FMN 200 uM) is reported as 35.1 nM and the “apparent KD of MS2 coat protein” value (input ligand: none) is reported as 37.6 nM.
For “CCUCAACAGUAGGAUAUCAUAAAACUAUUGUGAUGAGAAGGACUGACAUGAGGAUCACCCAUGUUAACGUGAUA [Exclusion 6 - 5:a] (puzzle: Exclusion 6)”, the “apparent KD of MS2 coat protein” value [1] was 17.4 nM.
“CCUCCACAUGAGGAUCACCCAUGUCAGGAUAUCGUGCGCGCGUUUUCGGUCUUUCGCGCGAGAAGGGACGACUG (puzzle: Exclusion 1)” was tested, and the “apparent KD of MS2 coat protein” value [1] was 24.1 nM.
In the case of “CCUGCGGACAAAGGAUAUUGCGGUGGCCGGCUCAGUAAAUCUAGCCAACAUGAGGAUCACCCAUGUAAGAAGGUUGCCGUUGGU [Qudice] (Eterna round: R96, puzzle: Exclusion NG 2)”, the “apparent KD of MS2 coat protein” value [2] is reported as 17 nM.
With “CCUGGGUCAUCUCCCAGGAACAACAUGAGGAUCACCCAUGUCUAGGAUAUCCACCAGUCAAUAAAGGAGAAGGAGACGGUGGUU [Onlaxe] (Eterna round: R96, puzzle: Exclusion NG 3)” the “apparent KD of MS2 coat protein” value (input ligand: FMN 200 uM) was 22.2 nM, the “apparent KD of MS2 coat protein” value [2] was 14.6 nM and the “apparent KD of MS2 coat protein” value (input ligand: none) was 19.7 nM.
With “CCUGUGACGCAGGAUAUCGAGCACAAUGCAUGUUGAGAAGGGCGUACAUGAGGAUCACCCAUGUCUCACGUAGG [Eternabot (L1) Solution 53] (Eterna round: R97, puzzle: Exclusion 6)” the “apparent KD of MS2 coat protein” value (input ligand: FMN 200 uM) was 175 nM and the “apparent KD of MS2 coat protein” value (input ligand: none) was 316 nM.
In the case of “CCUUAUUAUCGAGGAUAUCCUAUUGAAAUUCUGGGAGAAGGCGGACUCAACAUGAGGAUCACCCAUGUGGGACGGAUGCUAGGA [salish99_exng1_r04_603] (Eterna round: R96, puzzle: Exclusion NG 1)”, the “apparent KD of MS2 coat protein” value (input ligand: FMN 200 uM) is reported as 21 nM, the “apparent KD of MS2 coat protein” value [2] is reported as 13.5 nM and the “apparent KD of MS2 coat protein” value (input ligand: none) is reported as 20.2 nM.
With “CCUUUGUCAGGAUAUCAGAAAACGCCCGUAGGGAGCGCAAAUGAGAAGGGACAUGAGGAUCACCCAUGUAAAGA [Edvereri] (puzzle: Exclusion 4)” the “apparent KD of MS2 coat protein” value [3] was 204 nM, the “apparent KD of MS2 coat protein” value [1] was 50.1 nM and the “apparent KD of MS2 coat protein” value [4] was 53 nM.
In the case of “CGACCACAUGAGGAUCACCCAUGUCAGGAUAUGAGAGCCUUACGAAAGAGACGGCAGCUUAGAAGGGAUGCGGC [Eternabot (L1) Solution 74] (Eterna round: R97, puzzle: Exclusion 1)”, the “apparent KD of MS2 coat protein” value (input ligand: FMN 200 uM) is reported as 23.3 nM and the “apparent KD of MS2 coat protein” value (input ligand: none) is reported as 26.9 nM.
“CGACUAAACGUGAGGAUAUGCGGUGCCAGAACAUUGCAGAAGGCACAUGAGGAUCACCCAUGUGUGGGAGAAGA [Eternabot (L1) Solution 43] (Eterna round: R97, puzzle: Brourd's mod of Exclusion 4)” was tested, and the “apparent KD of MS2 coat protein” value (input ligand: FMN 200 uM) was 241 nM and the “apparent KD of MS2 coat protein” value (input ligand: none) was 103 nM.
For “CGAGACGGAGGAUAUACAUGAGGAUCACCCAUGUUAAACCACGGGUAGCCUUCGGUCGGUAGAAGGCCGCAUCG [Eternabot (Original) Solution 47] (Eterna round: R97, puzzle: Exclusion 3)”, the “apparent KD of MS2 coat protein” value (input ligand: FMN 200 uM) was 86.7 nM and the “apparent KD of MS2 coat protein” value (input ligand: none) was 21.2 nM.
For “CGAGAGCGAGGAUAUACACAACACCUCACUGUCAAGAAAGGACAUGAGGAUCACCCAUGUAGAAGGUGCAAAGC [Xecerevear] (puzzle: Exclusion 2)”, the “apparent KD of MS2 coat protein” value [3] was 303 nM, the “apparent KD of MS2 coat protein” value [1] was 412 nM and the “apparent KD of MS2 coat protein” value [4] was 326 nM.
With “CGAUAAAGGUGAGGAUAUGAGAAUAGAAAGAAAUCAGAAGGCACACAUGAGGAUCACCCAUGUGAGUUCUCGAGAUUACAUGGU [Prohibition 45 - Jieux - Exclusion NG 1] (Eterna round: R96, puzzle: Exclusion NG 1)” the “apparent KD of MS2 coat protein” value [2] was 10.8 nM.
For “CGAUCACAUGAGGAUCACCCAUGUGAGGAUAUAAUAACGCGGCGUGAGCACGGGAAUUUUAGAAGGCACACGGU [Eternabot (Original) Solution 42] (Eterna round: R97, puzzle: Exclusion 1)”, the “apparent KD of MS2 coat protein” value (input ligand: FMN 200 uM) was 14.2 nM and the “apparent KD of MS2 coat protein” value (input ligand: none) was 13 nM.
With “CGAUCGGUAGGAUAUACAUGAACCUUGGUUGUGAGGCCUAAACAUGAGGAUCACCCAUGUAGAAGGACCUCGUA [EX2 C.10] (Eterna round: R97, puzzle: Exclusion 2)” the “apparent KD of MS2 coat protein” value (input ligand: FMN 200 uM) was 13.9 nM and the “apparent KD of MS2 coat protein” value (input ligand: none) was 13.8 nM.
For “CGAUGUCUUCGGACAUCGAACAUGAGGAUCACCCAUGUAAUGAGCAGAUCCUCAUGCAAGCUUUUUGCUCGUCUUAU [Sensor v3 - turn-off variant 1 - 45] (puzzle: Sensor v3, turn-off variant 1)”, the “apparent KD of MS2 coat protein” value [3] was 14 nM, the “apparent KD of MS2 coat protein” value [1] was 9.69 nM and the “apparent KD of MS2 coat protein” value [4] was 16.6 nM.
In the case of “CGAUGUGGAGUGAGGAUAUCGUGUUCGAAAGAACGUGAGAAGGCACAUGAGGAUCACCCAUGUGAUCCAUGUCG [Omei Ex4B A8] (Eterna round: R97, puzzle: Brourd's mod of Exclusion 4)”, the “apparent KD of MS2 coat protein” value (input ligand: FMN 200 uM) is reported as 31.7 nM and the “apparent KD of MS2 coat protein” value (input ligand: none) is reported as 26.4 nM.
With “CGCAAAAGGAAGGAUAUGCUAGACGAAAGUCUAGCAGAAGGUCCUACAUGAGGAUCACCCAUGUGUCCUAUGCG [Mat - Exclusion 6 - Eli Mod - D11] (Eterna round: R97, puzzle: Exclusion 6)” the “apparent KD of MS2 coat protein” value (input ligand: FMN 200 uM) was 63.1 nM and the “apparent KD of MS2 coat protein” value (input ligand: none) was 46.6 nM.
With “CGCAACACAUGAGGAUCAAACAUGAGGAUCACCCAUGUAAAACAAGCUUUUUGCUCGUCUUAUAAAUAUGUGUUGCG [Electric Eye 1 - Jieux - Sensor, turn-off variant 1] (Eterna round: R97, puzzle: Sensor, turn-off variant 1)” the “apparent KD of MS2 coat protein” value (input ligand: FMN 200 uM) was 18.4 nM and the “apparent KD of MS2 coat protein” value (input ligand: none) was 21 nM.
With “CGCACACAUGAGGAUCACCCAUGUGAGGAUAUCAUGCUUCGUAGUAAACUACGAAGUGUGAGAAGGCACAUGCC [Omei Ex1 D7] (Eterna round: R97, puzzle: Exclusion 1)” the “apparent KD of MS2 coat protein” value (input ligand: FMN 200 uM) was 24.2 nM and the “apparent KD of MS2 coat protein” value (input ligand: none) was 18.4 nM.
“CGCAUGUCAGGAUAUCGUGCAUACAACGAAAGUUCUAUGUGCGAGAAGGGACAUGAGGAUCACCCAUGUUAGCG [Omei Ex4 A9] (Eterna round: R97, puzzle: Exclusion 4)” was tested, and the “apparent KD of MS2 coat protein” value (input ligand: FMN 200 uM) was 741 nM and the “apparent KD of MS2 coat protein” value (input ligand: none) was 604 nM.
With “CGGAUGUAAGGAUAUCGUGCAAGUUUCAAAAGAGGCUUGUGCGAGAAGGUACAUGAGGAUCACCCAUGUAGGUU [Omei Ex4 B6] (Eterna round: R97, puzzle: Exclusion 4)” the “apparent KD of MS2 coat protein” value (input ligand: FMN 200 uM) was 157 nM and the “apparent KD of MS2 coat protein” value (input ligand: none) was 75.8 nM.
In the case of “CGGAUGUGAGGAUAUACAUGAGGAUCACCCAUGUGUGCCAGCUAGAUGACUGGCACUUGUAGAAGGCACGUCUG [Mat - Exclusion 3 - Mod of JL D91] (Eterna round: R96, puzzle: Exclusion 3)”, the “apparent KD of MS2 coat protein” value (input ligand: FMN 200 uM) is reported as 25.5 nM, the “apparent KD of MS2 coat protein” value [2] is reported as 11.3 nM and the “apparent KD of MS2 coat protein” value (input ligand: none) is reported as 16.1 nM.
In the case of “CGGAUGUGAGGAUAUACAUGAGGAUCACCCAUGUGUGCCAGCUAGAUGACUGGCACUUGUAGAAGGCACGUCUG [Mat - Exclusion 3 - Mod of JL D91] (puzzle: Exclusion 3)”, the “apparent KD of MS2 coat protein” value [1] is reported as 11.3 nM.
With “CGGAUGUUAGGAUAUUAGUAGUAGUCAGAAUAGACUAUUACUGAGAAGGAACAUGAGGAUCACCCAUGUAUCCG [Eli x4 4.20] (Eterna round: R97, puzzle: Exclusion 4)” the “apparent KD of MS2 coat protein” value (input ligand: FMN 200 uM) was 47.4 nM and the “apparent KD of MS2 coat protein” value (input ligand: none) was 17.7 nM.
For “CGGCAACAUGAGGAUCACCCAUGUUAGGAUAUCGGUGGCUGACACGAAACAGGACCGGUGAGAAGGAGUAUGGU [Eternabot (L1) Solution 2] (Eterna round: R97, puzzle: Exclusion 1)”, the “apparent KD of MS2 coat protein” value (input ligand: FMN 200 uM) was 39 nM and the “apparent KD of MS2 coat protein” value (input ligand: none) was 39.2 nM.
With “CGGCGACAUGAGGAUCACCCAUGUGAGGAUAUGACGGGAAAAGCGUGAGCAGUUUGUGUCAGAAGGCGCGUAGG [salish99_ex1_r4_081] (Eterna round: R97, puzzle: Exclusion 1)” the “apparent KD of MS2 coat protein” value (input ligand: FMN 200 uM) was 20.2 nM and the “apparent KD of MS2 coat protein” value (input ligand: none) was 28.7 nM.
“CGGGCGUGAGGAUAUCCAUCUGGAUCAGACUAGAUCCUGAUGGAGAAGGCACAUGAGGAUCACCCAUGUACCCG [Eli 4x 4.50] (Eterna round: R97, puzzle: Exclusion 4)” was tested, and the “apparent KD of MS2 coat protein” value (input ligand: FMN 200 uM) was 22.2 nM and the “apparent KD of MS2 coat protein” value (input ligand: none) was 18.6 nM.
In the case of “CGGGUGAUAGGAUAUGACCAAGGUGACAUGAGGAUCACCCAUGUGAUCGUCGUAGACCUGUCAGAAGGGUUCCCGA [Bivevebe] (Eterna round: R97, puzzle: Exclusion 5)”, the “apparent KD of MS2 coat protein” value (input ligand: FMN 200 uM) is reported as 78.7 nM and the “apparent KD of MS2 coat protein” value (input ligand: none) is reported as 34.9 nM.
With “CGGUACUGAGGAUAUACAUGAGGAUCACCCAUGUGUUCUAGCUAGCGUACUGGCAUUUGUAGAAGGCGGUGCUG [JL-ex3-3.23 Brourd mod] (puzzle: Exclusion 3)” the “apparent KD of MS2 coat protein” value [1] was 16.4 nM.
For “CGGUGCUGAGGAUAUACAUGAGGAUCACCCAUGUGUGCCAGCUAGCUGACUGGCACUUGUAGAAGGCAGUACUG [JL-ex3-2.13 Brourd mod] (puzzle: Exclusion 3)”, the “apparent KD of MS2 coat protein” value [1] was 12.4 nM.
For “CGGUGCUGAGGAUAUACAUGAGGAUCACCCAUGUGUUCUAGCUAGCGUACUGGCAGAUGUAGAAGGCGGUACUG [JL-ex3-3.43 Brourd mod] (puzzle: Exclusion 3)”, the “apparent KD of MS2 coat protein” value [1] was 17.1 nM.
In the case of “CGUAGCAAUGUGAGGAUAUCUAGAGCUUCGGCUCUAGAGAAGGCACAUGAGGAUCACCCAUGUGAUUAGCUACG [BmEx4/9-B1] (Eterna round: R97, puzzle: Brourd's mod of Exclusion 4)”, the “apparent KD of MS2 coat protein” value (input ligand: FMN 200 uM) is reported as 989 nM and the “apparent KD of MS2 coat protein” value (input ligand: none) is reported as 347 nM.
